{
  "source": "patent US20140155331A1",
  "about": "(COUNCIL OF SCIENTIFIC AND INDUSTRIAL RESEARCH, published 2014)",
  "binders": {"B1": {"name": "pBBD-TRTK (branched dimeric Aib substituted TRTK) (peptide)", "peptide": "TRTKIDW[Aib]KIL[Aib]KAH[Ahx]", "chain": "Lys-NH2", "modifications": "also: branched dimer: two identical arms on one branching Lys (chain 2)", "notes": "This is a branched peptide with two identical arms on one lysine; also called bivalent helically branched peptide"}, "B2": {"name": "pBM-TRTK (Aib substituted TRTK monomer peptide) (peptide)", "peptide": "fluorescein-TRTKIDW[Aib]KIL[Aib]GGGCG-NH2", "notes": "The peptide is derived from TRTK-12 (CapZ residues 265-276) with Aib at N8 and S12; also called pBM-TRK"}},
  "key": {"S100B [1]": {"target": "T1, S100B", "T1 chain": "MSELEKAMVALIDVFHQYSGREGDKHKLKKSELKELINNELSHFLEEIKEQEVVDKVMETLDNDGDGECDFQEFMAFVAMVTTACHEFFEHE", "assay": "fluorescence anisotropy; 5 nM fluorescein labeled peptide titrated with S100B in 50 mM Tris-HCl pH 7.5, 50 mM NaCl, 10 mM CaCl2, 25 C"}, "S100B [2]": {"target": "T1, S100B", "assay": "fluorescence anisotropy, N-terminal fluorescein labeled peptide"}},
  "note": "Where no end group is shown, it is not given here. [ ]: non-standard residue; d: D form. fluorescein = N-terminal 5(6)-carboxyfluorescein label; Aib = CC(C)(N)C(=O)O; Ahx = NCCCCCC(=O)O",
  "data": [
    {"binder": "B1", "values": [
      {"measurement": "Kd", "setting": "S100B [1]", "value": 7.7, "unit": "nM"}
    ]},
    {"binder": "B2", "values": [
      {"measurement": "Kd", "setting": "S100B [2]", "value": "~300", "unit": "nM"}
    ]}
  ]
}
